Reference: article PMC12373895

How the values were obtained:
Experiment in all cases: ELONA
[1] = target: T1, ERA deltaKH (Staphylococcus aureus, UniProt Q2FY06 1-202)
T1 sequence: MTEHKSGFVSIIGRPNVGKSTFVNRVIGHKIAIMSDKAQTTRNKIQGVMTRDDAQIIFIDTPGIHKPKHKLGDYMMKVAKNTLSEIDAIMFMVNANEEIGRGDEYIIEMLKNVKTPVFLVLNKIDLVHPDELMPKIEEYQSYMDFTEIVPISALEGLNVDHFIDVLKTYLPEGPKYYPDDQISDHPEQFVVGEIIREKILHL

[2] = target: T2, 1F8 (Chagas antigenic protein) (Trypanosoma cruzi, UniProt P07749 1-211)
T2 sequence: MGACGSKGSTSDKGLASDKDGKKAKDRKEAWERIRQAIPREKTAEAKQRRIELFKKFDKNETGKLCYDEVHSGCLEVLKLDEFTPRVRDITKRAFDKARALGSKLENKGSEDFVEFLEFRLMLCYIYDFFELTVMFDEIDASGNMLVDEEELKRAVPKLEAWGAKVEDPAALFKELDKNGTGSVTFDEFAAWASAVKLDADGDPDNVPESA

[3] = target: T3, ERA GTPase (Staphylococcus aureus, UniProt Q2FY06 1-299)
T3 sequence: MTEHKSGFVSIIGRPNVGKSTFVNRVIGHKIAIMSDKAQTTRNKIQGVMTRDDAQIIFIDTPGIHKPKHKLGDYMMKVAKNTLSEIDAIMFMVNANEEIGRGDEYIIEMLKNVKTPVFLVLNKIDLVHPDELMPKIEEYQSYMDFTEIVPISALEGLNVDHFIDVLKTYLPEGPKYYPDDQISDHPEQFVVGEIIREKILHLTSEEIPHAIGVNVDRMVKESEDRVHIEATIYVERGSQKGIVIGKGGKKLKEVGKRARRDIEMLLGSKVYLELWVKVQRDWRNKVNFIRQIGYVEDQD

[4] = target: T3, ERA GTPase; remark: listed apart in the source

TACTAGCCCTACCTGTACTCTCGAGCCGATTTTAAGGATC (ssDNA) [AptERA 2 (40 nt)]
binding result [1]: no binding | binding result [2]: no binding | apparent K (half saturation) [3]: 185 ± 3 nM | Kd [4]: 243 ± 16 nM
